In patent US6096512A, “Cloned DNA encoding a UDP-GalNAc: Polypeptide, N-acetylgalactosaminyltransferase” (Pharmacia & Upjohn Company, priority 1997, dated 2000):
Entries after “also recorded” stand apart in the source; their conditions may differ.

T1: bovine colostrum GalNAc-transferase (Bos taurus, UniProt Q07537)
T1 sequence (Q07537 41-559): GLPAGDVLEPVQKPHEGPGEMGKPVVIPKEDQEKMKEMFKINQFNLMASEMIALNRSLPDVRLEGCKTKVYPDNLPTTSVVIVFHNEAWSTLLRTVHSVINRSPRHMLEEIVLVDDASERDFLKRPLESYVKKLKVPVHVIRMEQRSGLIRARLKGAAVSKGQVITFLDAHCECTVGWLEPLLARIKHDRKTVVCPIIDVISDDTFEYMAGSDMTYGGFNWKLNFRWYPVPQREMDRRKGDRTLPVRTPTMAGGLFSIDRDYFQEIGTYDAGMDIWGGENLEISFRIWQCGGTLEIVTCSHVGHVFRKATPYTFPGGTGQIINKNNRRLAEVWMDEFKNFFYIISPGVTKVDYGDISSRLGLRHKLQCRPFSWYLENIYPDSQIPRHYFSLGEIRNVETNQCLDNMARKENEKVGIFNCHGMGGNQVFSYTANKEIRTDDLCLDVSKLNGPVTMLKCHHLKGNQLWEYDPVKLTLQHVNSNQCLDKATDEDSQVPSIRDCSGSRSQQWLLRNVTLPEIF

B1: Bovine rhodanese: cytoplasmic protein containing three strong predicted glycosylation sites (protein)
chain: VHQVLYRALVSTKWLAESVRAGKVGPGLRVLDASWYSPGTREARKEYLERHVPGASFFDIEECRDKASPYEVMLPSEAGFADYVGSLGISNDTHVVVYDGDDLGSFYAPRVWWMFRVFGHRTVSVLNGGFRNWLKEGHPVTSEPSRPEPAIFKATLNRSLLKTYEQVLENLESKRFQLVDSRAQGRYLGTQPEPDAVGLDSGHIRGSVNMPFMNFLTEDGFEKSPEELRAMFEAKKVDLTKPLIATCRKGVTACHIALAAYLCGKPDVAIYDGSWFEWFHRAPPETWVSQGKGGKA
B2: GalNAcT 2-1.A: baculovirus isolate of the full length GalNAc-transferase gene (pAC373-GalNAcT) expressed in Sf9 cells (protein)
chain: MRKFAYCKVVLATSLIWVLLDMFLLLYFSECNKCDEKKERGLPAGDVLEPVQKPHEGPGEMGKPVVIPKEDQEKMKEMFKINQFNLMASEMIALNRSLPDVRLEGCKTKVYPDNLPTTSVVIVFHNEAWSTLLRTVHSVINRSPRHMLEEIVLVDDASERDFLKRPLESYVKKLKVPVHVIRMEQRSGLIRARLKGAAVSKGQVITFLDAHCECTVGWLEPLLARIKHDRKTVVCPIIDVISDDTFEYMAGSDMTYGGFNWKLNFRWYPVPQREMDRRKGDRTLPVRTPTMAGGLFSIDRDYFQEIGTYDAGMDIWGGENLEISFRIWQCGGTLEIVTCSHVGHVFRKATPYTFPGGTGQIINKNNRRLAEVWMDEFKNFFYIISPGVTKVDYGDISSRLGLRHKLQCRPFSWYLENIYPDSQIPRHYFSLGEIRNVETNQCLDNMARKENEKVGIFNCHGMGGNQVFSYTANKEIRTDDLCLDVSKLNGPVTMLKCHHLKGNQLWEYDPVKLTLQHVNSNQCLDKATDEDSQVPSIRDCSGSRSQQWLLRNVTLPEIF
B3: GalNAcT 2-1.B: baculovirus isolate of the full length GalNAc-transferase gene (pAC373-GalNAcT) expressed in Sf9 cells (protein)
chain: MRKFAYCKVVLATSLIWVLLDMFLLLYFSECNKCDEKKERGLPAGDVLEPVQKPHEGPGEMGKPVVIPKEDQEKMKEMFKINQFNLMASEMIALNRSLPDVRLEGCKTKVYPDNLPTTSVVIVFHNEAWSTLLRTVHSVINRSPRHMLEEIVLVDDASERDFLKRPLESYVKKLKVPVHVIRMEQRSGLIRARLKGAAVSKGQVITFLDAHCECTVGWLEPLLARIKHDRKTVVCPIIDVISDDTFEYMAGSDMTYGGFNWKLNFRWYPVPQREMDRRKGDRTLPVRTPTMAGGLFSIDRDYFQEIGTYDAGMDIWGGENLEISFRIWQCGGTLEIVTCSHVGHVFRKATPYTFPGGTGQIINKNNRRLAEVWMDEFKNFFYIISPGVTKVDYGDISSRLGLRHKLQCRPFSWYLENIYPDSQIPRHYFSLGEIRNVETNQCLDNMARKENEKVGIFNCHGMGGNQVFSYTANKEIRTDDLCLDVSKLNGPVTMLKCHHLKGNQLWEYDPVKLTLQHVNSNQCLDKATDEDSQVPSIRDCSGSRSQQWLLRNVTLPEIF
B4: GalNAcT-Mel: recombinant baculovirus that expresses a secreted form of GalNAc-transferase with honeybee melittin signal peptide (protein)
chain: DPSPALEPVQKPHEGPGEMGKPVVIPKEDQEKMKEMFKINQFNLMASEMIALNRSLPDVRLEGCKTKVYPDNLPTTSVVIVFHNEAWSTLLRTVHSVINRSPRHMLEEIVLVDDASERDFLKRPLESYVKKLKVPVHVIRMEQRSGLIRARLKGAAVSKGQVITFLDAHCECTVGWLEPLLARIKHDRKTVVCPIIDVISDDTFEYMAGSDMTYGGFNWKLNFRWYPVPQREMDRRKGDRTLPVRTPTMAGGLFSIDRDYFQEIGTYDAGMDIWGGENLEISFRIWQCGGTLEIVTCSHVGHVFRKATPYTFPGGTGQIINKNNRRLAEVWMDEFKNFFYIISPGVTKVDYGDISSRLGLRHKLQCRPFSWYLENIYPDSQIPRHYFSLGEIRNVETNQCLDNMARKENEKVGIFNCHGMGGNQVFSYTANKEIRTDDLCLDVSKLNGPVTMLKCHHLKGNQLWEYDPVKLTLQHVNSNQCLDKATDEDSQVPSIRDCSGSRSQQWLLRNVTLPEIF
B5: Subtilisin: bacterial protein produced by a microbial system incapable of O-linked oligosaccharide biosynthesis (protein, UniProt P00782 108-382, looked up)
Subtilisin BPN': AQSVPYGVSQIKAPALHSQGYTGSNVKVAVIDSGIDSSHPDLKVAGGASMVPSETNPFQDNNSHGTHVAGTVAALNNSIGVLGVAPSASLYAVKVLGADGSGQYSWIINGIEWAIANNMDVINMSLGGPSGSAALKAAVDKAVASGVVVVAAAGNEGTSGSSSTVGYPGKYPSVIAVGAVDSSNQRASFSSVGPELDVMAPGVSIQSTLPGNKYGAYNGTSMASPHVAGAAALILSKHPNWTNTQVRSSLENTTTKLGDSFYYGKGLINVQAAAQ

Assays:
[1] = biological target: T1, bovine colostrum GalNAc-transferase; assay: Transfer of N-acetylgalactosamine to protein acceptors by bovine colostrum GalNAc-transferase; type: biochemical; settings: for Product formed, native acceptor / Product formed, reduced and carboxymethylated acceptor: acceptor 65 μM, enzyme approximately 65 mU/ml, 60 minutes; for Product formed, reduced and carboxymethylated acceptor: myelin basic protein was not reduced and carboxymethylated; for acceptor activity in words: native or reduced and carboxymethylated
Procedure: (§1) The standard assay for UDP-GalNAc:polypeptide, N-acetylgalactosaminyltransferase activity during purification contained the following components in a final volume of 80 μl: 50 mM Imidazole pH 7.2, 10 mM MnCl2, 0.5% Triton X-100, 15 μM UDP-GalNAc, UDP[1-^3 H-] GalNAc (27,000 cpm/assay), 0.15 mg/ml apomucin and varying amounts of enzyme (see individual experiments). The reaction mixture is incubated at 37° C. for 5-10 minutes (see individual experiments) and the reaction product is TCA precipitated and radioactivity measured as described. Assays for activity in lysates from Spodoptera frugiperda cell line 9 (hereinafter referred to as Sf9 cells) are carried out as described by Thomsen et al., (1990).
The above conclusions and the predictions of the specificity algorithm are validated experimentally by studying the ability of bovine colostrum GalNAc-transferase to transfer N-acetylgalactosamine to a variety of acceptors, both native proteins and synthetic acceptor peptides. The transfer of N-acetylgalactosamine to protein acceptors is assayed as described by Elhammer and Kornfeld, 1986, with minor modifications. The concentration of UDP-GalNAc is saturating in all assays; a Km of 8 μM is reported for bovine colostrum GalNAc-transferase (Elhammer and Kornfeld, 1986).
The transfer of N-acetylgalactosamine to protein acceptors was assayed
under standard conditions (see Material and Methods). The acceptor
concentration was 65 μM, the enzyme concentration approximately
65 mU/ml and assay time was 60 minutes. The transfer to both native and
reduced-carboxymethylated acceptors was assayed.

[2] = system: GalNAc-transferase activity in Sf9 cells; assay: Expression of baculovirus isolates of soluble GalNAc-transferase in Sf9 cells, total activity; type: cell-based, Spodoptera frugiperda; settings: for Total activity, cell lysate / Total activity, culture medium: 65 hours post infection; for Total activity, cell lysate: 1X10^6 cells; for Total activity, culture medium: culture medium volume 5 ml
Procedure: GalNAcTs was routinely expressed in one liter batches. Approximately 1×10^9 cells in one liter Grace's serum-free insect medium (Insect Express) were infected with 5 pfu/cell of GalNAcTs-Mel. The infected cells were cultured in shaker flasks for 65 hours before harvest.
^a 1 unit equals one mole Nacetylgalactosamine transferred to apomuci
per minute, under assay conditions.
Cells (1X10^6) were infected with recombinant virus containing GalNAcTs-Mel (5 pfu/cell). The cells were harvestd 65 hours post infrction, lysed in a detergent containing buffer and the GalNac-transferase activity was determined in the cell lysates and the corresponding culture media; lysate and culture medium from uninfected cells were assayed as control. The numbers have been adjusted for differences in protein content in the cell lysates; the volume of the culture media was 5 ml.

[3] = system: GalNAc-transferase activity in Sf9 cells; assay: Expression of baculovirus isolates of the GalNAc-transferase in Sf9 cells, GalNAcT activity; type: cell-based, Spodoptera frugiperda; settings: for Specific activity: Sf9 cell lysates, 48 hours post infection; for Relative rate: relative to uninfected cells
Procedure: as §1
The putative GalNAcT coding region, pCR1000-91B, is digested with SstII and HindIII (both enzymes cut only in pCR1000 sequences that flank the insert; FIG. 2C) and these sites are blunted using T4 DNA polymerase so that it can be cloned into a baculovirus expression vector. BamHI linkers are then ligated onto the blunted ends and the resulting sample is ligated into the BamHI site of the baculovirus expression vector pAC373 (Summers and Smith, 1986). The resulting isolates are screened for proper orientation of the GalNAcT open reading frame with respect to the baculovirus polyhedron promoter, to yield pAC373-GalNAcT. Cotransfection of Sf9 cells with pAC373-GaINAcT and linearized baculovirus DNA from PharMingen's baculoGold transfection kit is performed using calcium phosphate precipitation (Summers & Smith, 1986). The baculovirus DNA provided in the PharMingen transfection kit contains a lethal mutation that can be corrected by homologous recombination with sequences contained in the pAC373 vector. Therefore, following transfection, only recombinant viruses will grow on Sf9 cells. Transfections are done in duplicate and the resulting virus samples are referred to as GalNAcT 2-1A and GaINAcT 2-1B. Cells are harvested 48 hours post infection and lysed in a detergent containing buffer. Following sedimentation of undissolved material, the cleared lysates are assayed for GalNAcT activity. Lysates from uninfected cells or from cells infected with either a baculovirus containing an unrelated gene, CMV-POL (human cytomegalovirus DNA polymerase gene), or two separate baculovirus isolates of the GaINAcT gene, GalNAcT 2-1A and GaINAcT 2-1B, are assayed.

Row | Molecule | Product formed, native acceptor [1] | Product formed, reduced and carboxymethylated acceptor [1] | Total activity, cell lysate [2] | Total activity, culture medium [2] | Specific activity [3] | Relative rate [3] | further results
1 | B1 | < 0.1 nmol/min/mg | 3.3 nmol/min/mg |  |  |  |  | acceptor activity in words ([1]; listed as bovine rhodanese): neither of them reacts unless reduced and carboxymethylated; acceptor activity in words ([1]; listed as rhodanese): neither subtilisin nor rhodanese showed any acceptor activity without prior reduction and carboxymethylation
2 | B2 |  |  | 16.22 U | 1.61 U | 13.9 Units/mg protein | 87 | 
3 | B3 |  |  |  |  | 11.9 Units/mg protein | 74 | 
4 | B4 |  |  | 32.15 U | 57.80 U |  |  | portion of total enzymatic activity retained inside the cells [2]: 36%; activity in medium relative to cells expressing the full length molecule ([2]; culture medium): more than 35 times; increase in GalNAc-transferase activity in the culture medium ([2]; vs uninfected cells): 130 fold
5 | B5 | < 0.1 nmol/min/mg | 0.6 nmol/min/mg |  |  |  |  | transfer rate slower than to myelin basic protein ([1]; denatured subtilisin vs myelin basic protein): 35 times; acceptor activity in words [1]: neither of them reacts unless reduced and carboxymethylated; also recorded: neither subtilisin nor rhodanese showed any acceptor activity without prior reduction and carboxymethylation
